Data on one molecule can be found in publication doi:10.1101/2021.07.21.453268 (bioRxiv, 2021).

The experiment addresses T1, 3HA-Atg13 (S. cerevisiae, UniProt Q06628 1-738, hyper-phosphorylated (sites not given)).
T1 sequence (looked up): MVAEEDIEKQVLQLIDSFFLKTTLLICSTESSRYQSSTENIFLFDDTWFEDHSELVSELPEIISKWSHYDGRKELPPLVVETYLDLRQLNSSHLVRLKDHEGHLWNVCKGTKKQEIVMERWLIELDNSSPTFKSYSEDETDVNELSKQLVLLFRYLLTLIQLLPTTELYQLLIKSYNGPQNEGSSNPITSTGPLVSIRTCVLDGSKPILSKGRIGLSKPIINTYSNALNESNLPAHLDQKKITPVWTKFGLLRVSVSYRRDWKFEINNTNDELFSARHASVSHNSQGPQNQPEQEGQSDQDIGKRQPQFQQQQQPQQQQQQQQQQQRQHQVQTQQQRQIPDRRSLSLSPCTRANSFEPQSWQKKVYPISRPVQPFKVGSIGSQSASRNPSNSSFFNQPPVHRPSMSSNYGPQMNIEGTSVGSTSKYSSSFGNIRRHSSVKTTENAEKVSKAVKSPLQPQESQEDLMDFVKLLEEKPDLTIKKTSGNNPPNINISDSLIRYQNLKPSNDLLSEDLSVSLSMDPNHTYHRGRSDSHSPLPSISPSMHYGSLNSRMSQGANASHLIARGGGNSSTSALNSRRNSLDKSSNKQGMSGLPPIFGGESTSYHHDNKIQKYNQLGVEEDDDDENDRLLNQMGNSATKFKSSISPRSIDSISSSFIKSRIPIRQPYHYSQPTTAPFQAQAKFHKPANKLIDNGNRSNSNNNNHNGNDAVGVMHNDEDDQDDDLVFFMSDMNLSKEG
Put plainly: pull-down.

B1: 6His-3FLAG-Cdc14m (enzyme, S. cerevisiae, UniProt Q00684 1-551, looked up)
chain: MRRSVYLDNTIEFLRGRVYLGAYDYTPEDTDELVFFTVEDAIFYNSFHLDFGPMNIGHLYRFAVIFHEILNDPENANKAVVFYSSASTRQRANAACMLCCYMILVQAWTPHQVLQPLAQVDPPFMPFRDAGYSNADFEITIQDVVYGVWRAKEKGLIDLHSFNLESYEKYEHVEFGDFNVLTPDFIAFASPQEDHPKGYLATKSSHLNQPFKSVLNFFANNNVQLVVRLNSHLYNKKHFEDIGIQHLDLIFEDGTCPDLSIVKNFVGAAETIIKRGGKIAVHSKAGLGRTGCLIGAHLIYTYGFTANECIGFLRFIRPGMVVGPQQHWLYLHQNDFREWKYTTRISLKPSEAIGGLYPLISLEEYRLQKKKLKDDKRVAQNNIEGELRDLTMTPPSNGHGALSARNSSQPSTANNGSNSFKSSAVPQTSPGQPRKGQNGSNTIEDINNNRNPTSHANRKVVIESNNSDDESMQDTNGTSNHYPKVSRKKNDISSASSSRMEDNEPSATNINNAADDTILRQLLPKNRRVTSGRRTTSAAGGIRKISGSIKK
In the case of B1, the binding result was “binds”.
